Assay results: patent publication US12607633B2 (priority 2016, dated 2026)
“Also recorded” adds a separate entry of the source.

Columns and labels:
ZIKV ns2B-ns3 protease = ZIKV ns2B-ns3 protease (Zika virus, UniProt A0A024B7W1, C1582S/C1645S/R1467A/R1531G); format: biochemical
[1] = target: VEEV nsP2 protease cleavage of TRIM14 (Venezuelan equine encephalitis virus, UniProt P27282); format: cell-based
VEEV = format: cell-based, Venezuelan equine encephalitis virus (VEEV)
[2] = target: EEEV nsP2 cysteine protease (Eastern equine encephalitis virus, UniProt Q4QXJ8); format: biochemical
[3] = target: T1, VEEV nsP2 cysteine protease (Venezuelan equine encephalitis virus, UniProt P27282); details: pH 7
[4] = target: T1, VEEV nsP2 cysteine protease
[5] = target: CHIKV nsP2 cysteine protease (Chikungunya virus, UniProt Q8JUX6, A1139V/C1177Y/S1178N)
[6] = target: WEEV nsP2 cysteine protease (Western equine encephalitis virus, UniProt P13896)

Chain of VEEV nsP2 protease cleavage of TRIM14 (P27282 536-1329 limits assumed): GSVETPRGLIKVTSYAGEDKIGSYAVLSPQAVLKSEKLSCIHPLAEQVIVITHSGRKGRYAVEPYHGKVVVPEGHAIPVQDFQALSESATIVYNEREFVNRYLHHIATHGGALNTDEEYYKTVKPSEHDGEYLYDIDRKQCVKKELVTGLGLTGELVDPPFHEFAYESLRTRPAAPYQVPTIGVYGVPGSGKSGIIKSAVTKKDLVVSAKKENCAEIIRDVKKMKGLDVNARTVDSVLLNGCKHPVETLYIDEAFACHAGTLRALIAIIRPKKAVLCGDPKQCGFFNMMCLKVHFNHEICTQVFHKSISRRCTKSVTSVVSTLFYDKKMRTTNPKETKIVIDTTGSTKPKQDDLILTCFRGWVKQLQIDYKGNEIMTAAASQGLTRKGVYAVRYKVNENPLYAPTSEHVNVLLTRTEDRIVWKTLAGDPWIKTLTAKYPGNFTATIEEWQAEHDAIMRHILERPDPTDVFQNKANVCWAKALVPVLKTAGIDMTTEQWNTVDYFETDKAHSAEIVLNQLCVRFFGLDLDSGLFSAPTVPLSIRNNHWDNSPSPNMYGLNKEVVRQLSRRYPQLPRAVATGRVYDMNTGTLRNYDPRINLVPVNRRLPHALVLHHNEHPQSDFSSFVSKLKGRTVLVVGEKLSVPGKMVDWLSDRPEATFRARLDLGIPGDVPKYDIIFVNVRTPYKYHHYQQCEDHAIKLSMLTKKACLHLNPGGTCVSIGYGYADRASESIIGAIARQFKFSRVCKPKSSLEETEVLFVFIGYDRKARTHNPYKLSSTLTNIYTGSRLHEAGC

## CFP-SFRP4-YFP: Uncleavable control CFP-YFP substrate, 34 residues MFLSILVALCLWLHLALGVRGAPCEAVRIPMCRH ({CFP}-MFLSILVALCLWLHLALGVRGAPCEAVRIPMCRH-{YFP}; cysteine pairing not given here)
ZIKV ns2B-ns3 protease
  Proteases cutting the substrate: ZIKV ns2B-ns3 protease: Control, not cleaved by ZIKV

## CCCNC(=O)[C@H]1O[C@@H]1C(=O)N[C@H](C(=O)N1CCC[C@H]1C(=O)OC)[C@@H](C)CC [CA074 methyl ester]
[1]
  TRIM14 cleavage product (CP) in infected cell lysates (immunoblot): halted; also recorded: absent; also recorded: no longer present
VEEV
  VEEV titers / viral replication (plaque assays): halted viral replication; also recorded: decreased significantly

## CFP-SFRP2-YFP: Uncleavable control CFP-YFP substrate, 34 residues MLQGPGSLLLLFLASHCCLGSARGLFLFGQPDFS ({CFP}-MLQGPGSLLLLFLASHCCLGSARGLFLFGQPDFS-{YFP}; cysteine pairing not given here)
ZIKV ns2B-ns3 protease
  Proteases cutting the substrate: ZIKV ns2B-ns3 protease: Control, not cleaved by ZIKV

## CFP-NT5M-YFP: CFP-YFP substrate, 34-residue human NT5M sequence MIRLGGWCARRLCSAAVPAGRR↓GAAGGLGLAGGR ({CFP}-MIRLGGWCARRLCSAAVPAGRRGAAGGLGLAGGR-{YFP}; cysteine pairing not given here)
ZIKV ns2B-ns3 protease
  Proteases cutting the substrate: ZIKV ns2B-ns3 protease: cleavage; also recorded: ZIKV ns2B-ns3 protease

## CFP-FOXG1-YFP: CFP-YFP substrate, 21-residue human FOXG1 sequence RSTTSRAKLAFKR↓GARLTSTG ({CFP}-RSTTSRAKLAFKRGARLTSTG-{YFP})
ZIKV ns2B-ns3 protease
  Proteases cutting the substrate: ZIKV ns2B-ns3 protease: cleavage; also recorded: ZIKV ns2B-ns3 protease

## CFP-SFRP1-YFP: CFP-YFP substrate, 25-residue human SFRP1 sequence MGIGRSEGGRR↓GAALGVLLALGAAL ({CFP}-MGIGRSEGGRRGAALGVLLALGAAL-{YFP})
ZIKV ns2B-ns3 protease
  Proteases cutting the substrate: ZIKV ns2B-ns3 protease: cleavage; also recorded: ZIKV ns2B-ns3 protease

## CFP-TRIM14-YFP (SEQ ID NO: 4): CFP-YFP FRET substrate, 25 residues of human TRIM14 DCFATGRHYWEVDVQEAGA↓GWWVGA (DCFATGRHYWEVDVQEAGAGWWVGA)
[2]
  Extent of cleavage of TRIM14 substrate by EEEV nsP2 protease (SDS-PAGE): did not show significant amounts of cleavage
[3]
  Km: 21 ± 2 µM
  Vmax: 0.056 ± 0.002 U/mg
[4]
  Proteases cutting the substrate: VEEV nsP2 cysteine protease: VEEV nsP2 cysteine protease
[5]
  Extent of cleavage of TRIM14 substrate by CHIKV nsP2 protease (SDS-PAGE): did not show evidence of significant cleavage
[6]
  Extent of cleavage of TRIM14 substrate by WEEV nsP2 protease (SDS-PAGE): did not show significant amounts of cleavage
